Values of other authors in publication PMC3604136.

Target: ARNT PAS-B (Homo sapiens) (UniProt P27540)
Sequence (P27540 356-470): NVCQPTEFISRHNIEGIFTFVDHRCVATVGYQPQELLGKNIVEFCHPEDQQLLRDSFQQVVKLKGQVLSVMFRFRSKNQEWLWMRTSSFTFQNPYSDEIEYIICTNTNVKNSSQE

Sequence of HIF-2α PAS-B (Q99814 239-350): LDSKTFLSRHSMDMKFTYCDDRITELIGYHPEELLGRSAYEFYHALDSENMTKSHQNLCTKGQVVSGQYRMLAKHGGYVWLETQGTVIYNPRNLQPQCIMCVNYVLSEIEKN

Q: For HIF-2α PAS-B (from UniProt Q99814), which Kd is on record?
A: 100 µM
